Results on two molecules are retold here after PMC10630886, “Downregulation of stromal syntenin sustains AML development” (EMBO Molecular Medicine, 2023).

Assay [1] concerns the target biotinylated peptide corresponding to the last 25 amino acids of endoglin wild-type. As to the kind of experiment: SPR; BIAcore T200, 25°C; 100 RU of biotinylated endoglin peptide immobilised on a streptavidin chip; His-tagged protein perfused (0.5 to 120 μM) at 30 μl/min in 10 mM HEPES pH 7.4, 150 mM NaCl, 0.005% Tween 20; apparent KD from equilibrium responses, Langmuir isotherm.

The target of assay [2] is T1, 6xHis-tagged GIPC1 construct (UniProt O14908 1-333).
T1 construct: also called recombinant GIPC1; source: recombinant; prepared as described previously (PMID: 27386966)
T1 sequence (looked up): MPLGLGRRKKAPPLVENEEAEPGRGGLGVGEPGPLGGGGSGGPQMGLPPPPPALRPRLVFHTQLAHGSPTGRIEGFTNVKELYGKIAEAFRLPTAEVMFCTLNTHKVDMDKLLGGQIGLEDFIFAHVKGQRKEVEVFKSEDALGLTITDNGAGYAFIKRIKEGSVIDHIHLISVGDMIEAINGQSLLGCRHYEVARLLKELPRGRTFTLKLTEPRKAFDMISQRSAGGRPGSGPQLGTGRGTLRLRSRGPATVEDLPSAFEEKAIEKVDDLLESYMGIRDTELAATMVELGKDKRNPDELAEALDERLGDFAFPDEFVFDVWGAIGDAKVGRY
The assay is described as above. Particulars: both partners purified.

No end group written: not given here.

As to “6xHis-tagged syntenin construct (containing the two PDZ domains and the C-terminal domain) (domain or fragment)”, the Kd in assay [1] came out at 27.1 µM.

B1: biotinylated peptide corresponding to the last 25 amino acids of endoglin wild-type (peptide)
peptide: SSESSSTNHSIGSTQSTPCSTSSMA
modifications: also: biotinylated, position not given here
notes: endoglin (CD105), last 25 C-terminal amino acids, wild type; also called endoglin cytosolic domain; immobilized peptide corresponding to the last 25 C-terminal amino acids of wild-type endoglin
As for B1, the Kd in assay [2] was determined as 2.4 µM.
